Laboratory results published in US20040072184.

Assays:
Syntide 2 = biological target: T1, Syntide 2
T1 chain: PLARTLSVAGLPGKK

[1] = biological target: T2, Calmodulin Dependent Protein Kinase Substrate
T2 chain: PLSRTLSVSS

CREBtide = biological target: T3, CREBtide
T3 chain: KRREILSRRPSYR

PKB-sub peptide = biological target: T4, PKB-sub peptide
T4 chain: CKRPRAASFAE

GST-SGK2 fusion protein = biological target: T5, GST-SGK2 fusion protein
T5 chain: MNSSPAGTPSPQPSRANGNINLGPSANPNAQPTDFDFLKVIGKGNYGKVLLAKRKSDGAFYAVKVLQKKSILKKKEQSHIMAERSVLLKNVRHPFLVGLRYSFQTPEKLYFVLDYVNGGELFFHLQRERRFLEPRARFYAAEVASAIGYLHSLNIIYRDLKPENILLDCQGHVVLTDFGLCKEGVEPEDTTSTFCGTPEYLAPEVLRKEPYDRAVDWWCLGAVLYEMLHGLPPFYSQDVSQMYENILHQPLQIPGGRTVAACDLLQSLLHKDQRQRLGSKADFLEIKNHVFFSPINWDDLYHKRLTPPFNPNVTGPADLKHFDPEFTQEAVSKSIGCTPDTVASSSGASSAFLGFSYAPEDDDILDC

Chain of PDK1 peptide (chain, as listed by the source): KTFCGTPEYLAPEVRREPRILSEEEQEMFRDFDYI

B1: X-press-CaMK-X1 fusion protein (protein)
chain: MGRKEEDDCSSWKKQTTNIRKTFIFMEVLGSGAFSEVFLVKQRLTGKLFALKCIKKSPAFRDSSLENEIAVLKKIKHENIVTLEDIYESTTHYYLVMQLVSGGELFDRILERGVYTEKDASLVIQQVLSAVKYLHENGIVHRDLKPENLLYLTPEENSKIMITDFGLSKMEQNGIMSTACGTPGYVAPEVLAQKPYSKAVDCWSIGVITYILLCGYPPFYEETESKLFEKIKEGYYEFESPFWDDISESAKDFICHLLEKDPNERYTCEKALSHPWIDGNTALHRDIYPSVSLQIQKNFAKSKWRQAFNAAAVVHHMRKLHMNLHSPGVRPEVENRPPETQASETSRPSSPEITITEAPVLDHSVALPALTQLPCQHGRRPTAPGGRSLNCLVNGSLHISSSLVPMHQGSLAAGPCGCCSSCLNIGSKGKSSYCSEPTLLKKANKKQNFKSEVMVPVKASGSSHCRAGQTGVCLIM
in vitro kinase assay (32P incorporation) with immunoprecipitated CaMK-X1 (Syntide 2): CaMK-X1 phosphorylated CREBtide and Syntide 2 in vitro
in vitro kinase assay (32P incorporation) with immunoprecipitated CaMK-X1 [1]: CaMK-X1 could not phosphorylate control peptide
in vitro kinase assay (32P incorporation) with immunoprecipitated CaMK-X1 (CREBtide): CaMK-X1 phosphorylated CREBtide and Syntide 2 in vitro

B2: Histidine tagged CaMK-X1 expressed in Sf9 cells (protein)
chain: B1 chain
in vitro kinase assay (32P incorporation) with Ni2+ column purified CaMK-X1 (Syntide 2): CREBtide and Syntide 2 are phosphorylated by the purified CaMK-X1
in vitro kinase assay (32P incorporation) with Ni2+ column purified CaMK-X1 [1]: Syntide 2and CREBtide had higher incorporation of ^32p than the control peptide
in vitro kinase assay (32P incorporation) with Ni2+ column purified CaMK-X1 (CREBtide): CREBtide and Syntide 2 are phosphorylated by the purified CaMK-X1

B3: GST-SGK2 fusion protein (protein)
chain: T5 chain
in vitro kinase assay (32P incorporation) with purified SGK2 (PKB-sub peptide): PKB-sub had significant incorporation of ^32P
in vitro kinase assay (32P incorporation) with purified SGK2 (PDK1 peptide): addition of same amount of control peptide (PDK1 peptide) had no significant incorporation

B4: His-tag PDK1 (protein)
chain: MARTTSQLYDAVPIQSSVVLCSCPSPSMVRTQTESSTPPGIPGGSRQGPAMDGTAAEPRPGAGSLQHAQPPPQPRKKRPEDFKFGKILGEGSFSTVVLARELATSREYAIKILEKRHIIKENKVPYVTRERDVMSRLDHPFFVKLYFTFQDDEKLYFGLSYAKNGELLKYIRKIGSFDETCTRFYTAEIVSALEYLHGKGIIHRDLKPENILLNEDMHIQITDFGTAKVLSPESKQARANSFVGTAQYVSPELLTEKSACKSSDLWALGCIIYQLVAGLPPFRAGNEYLIFQKIIKLEYDFPEKFFPKARDLVEKLLVLDATKRLGCEEMEGYGPLKAHPFFESVTWENLHQQTPPKLTAYLPAMSEDDEDCYGNYDNLLSQFGCMQVSSSSSSHSLSASDTGLPQRSGSNIEQYIHDLDSNSFELDLQFSEDEKRLLLEKQAGGNPWHQFVENNLILKMGPVDKRKGLFARRRQLLLTEGPHLYYVDPVNKVLKGEIPWSQELRPEAKNFKTFFVHTPNRTYYLMDPSGNAHKWCRKIQEVWRQRYQSHPDAAVQ
32P phosphorylation of SGK2 after incubation with PDK1, SDS-PAGE (GST-SGK2 fusion protein): SGK2 activated by PKD1 was significantly phosphorylated, while non-activated SGK2 was not
in vitro kinase activity of SGK2 after activation by PDK1 (GST-SGK2 fusion protein): the PDK1 activated SGK2 had significantly higher kinase activity compared to non-activated SGK2

B5: GST-DM-PK fusion protein (protein)
chain: MSAEVRLRRLQQLVLDPGFLGLEPLLDLLLGVHQELGASELAQDKYVADFLQWAEPIVVRLKEVRLQRDDFEILKVIGRGAFSEVAVVKMKQTGQVYAMKIMNKWDMLKRGEVSCFREERDVLVNGDRRWITQLHFAFQDENYLYLVMEYYVGGDLLTLLSKFGERIPAEMARFYLAEIVMAIDSVHRLGYVHRDIKPDNILLDRCGHIRLADFGSCLKLRADGTVRSLVAVGTPDYLSPEILQAVGGGPGTGSYGPECDWWALGVFAYEMFYGQTPFYADSTAETYGKIVHYKEHLSLPLVDEGVPEEARDFIQRLLCPPETRLGRGGAGDFRTHPFFFGLDWDGLRDSVPPFTPDFEGATDTCNFDLVEDGLTAMVSGGGETLSDIREGAPLGVHLPFVGYSYSCMALRDSEVPGPTPMEVEAEQLLEPHVQAPSLEPSVSPQDETAEVAVPAAVPAAEAEAEVTLRELQEALEEEVLTRQSLSREMEAIRTDNQNFASQLREAEARNRDLEAHVRQLQERMELLQAEGATAVTGVPSPRATDPPSHLDGPPAVAVGQCPLVGPGPMHRRHLLLPARVPRPGLSEALSLLLFAVVLSRAAALGCIGLVAHAGQLTAVWRRPGAARAP
in vitro kinase assay with DM-PK purified from E. coli (MBP): MBP and Histone H1 were both phosphorylated by purified DM-PK in these assays
in vitro kinase assay with DM-PK purified from E. coli (Histone H1): MBP and Histone H1 were both phosphorylated by purified DM-PK in these assays
